Assay results from patent publication US20230035659A1, “Compositions and Methods for TTR Gene Editing and Treating ATTR Amyloidosis Comprising a Corticosteroid or Use Thereof” (Intellia Therapeutics, Inc., priority 2019, published 2023).
Strand notation (5' to 3'): a small letter for the sugar, then the base; units joined by * are phosphorothioate-linked, units joined directly phosphodiester-linked; [ ] holds rarer units or linkages, { } end groups; capitals alone tell only the bases. m = 2'-O-methyl; r = 2'-OH (RNA)

B1: G000486: TTR sgRNA modified sequence, Human, SEQ ID NO: 93; guide sequence of CR003339 (nucleic acid)
guide: mA*mC*mA*rCrArArArUrArCrCrArGrUrCrCrArGrCrArGrUrUrUrUrArGrAmGmCmUmAmGmAmAmAmUmAmGmCrArArGrUrUrArArArArUrArArGrGrCrUrArGrUrCrCrGrUrUrArUrCrAmAmCmUmUmGmAmAmAmAmAmGmUmGmGmCmAmCmCmGmAmGmUmCmGmGmUmGmCmU*mU*mU*mU
B2: G000570: TTR sgRNA modified sequence, Human, SEQ ID NO: 111; guide sequence of CR003347 (nucleic acid)
guide: mC*mA*mU*rUrGrArUrGrGrCrArGrGrArCrUrGrCrCrUrGrUrUrUrUrArGrAmGmCmUmAmGmAmAmAmUmAmGmCrArArGrUrUrArArArArUrArArGrGrCrUrArGrUrCrCrGrUrUrArUrCrAmAmCmUmUmGmAmAmAmAmAmGmUmGmGmCmAmCmCmGmAmGmUmCmGmGmUmGmCmU*mU*mU*mU
B3: G000480: TTR sgRNA modified sequence, Human, SEQ ID NO: 87; guide sequence of CR003353 (nucleic acid)
guide: mA*mA*mA*rGrGrCrUrGrCrUrGrArUrGrArCrArCrCrUrGrUrUrUrUrArGrAmGmCmUmAmGmAmAmAmUmAmGmCrArArGrUrUrArArArArUrArArGrGrCrUrArGrUrCrCrGrUrUrArUrCrAmAmCmUmUmGmAmAmAmAmAmGmUmGmGmCmAmCmCmGmAmGmUmCmGmGmUmGmCmU*mU*mU*mU
B4: G000494: TTR sgRNA modified sequence, Human, SEQ ID NO: 101; guide sequence of CR003360 (nucleic acid)
guide: mG*mU*mG*rArGrUrCrUrGrGrArGrArGrCrUrGrCrArUrGrUrUrUrUrArGrAmGmCmUmAmGmAmAmAmUmAmGmCrArArGrUrUrArArArArUrArArGrGrCrUrArGrUrCrCrGrUrUrArUrCrAmAmCmUmUmGmAmAmAmAmAmGmUmGmGmCmAmCmCmGmAmGmUmCmGmGmUmGmCmU*mU*mU*mU
B5: G000482: TTR sgRNA modified sequence, Human, SEQ ID NO: 89; guide sequence of CR003365 (nucleic acid)
guide: mU*mG*mU*rArGrArArGrGrGrArUrArUrArCrArArArGrGrUrUrUrUrArGrAmGmCmUmAmGmAmAmAmUmAmGmCrArArGrUrUrArArArArUrArArGrGrCrUrArGrUrCrCrGrUrUrArUrCrAmAmCmUmUmGmAmAmAmAmAmGmUmGmGmCmAmCmCmGmAmGmUmCmGmGmUmGmCmU*mU*mU*mU
B6: G000499: TTR sgRNA modified sequence, Human, SEQ ID NO: 106; guide sequence of CR005303 (nucleic acid)
guide: mU*mG*mA*rArUrCrCrArArGrUrGrUrCrCrUrCrUrGrArGrUrUrUrUrArGrAmGmCmUmAmGmAmAmAmUmAmGmCrArArGrUrUrArArArArUrArArGrGrCrUrArGrUrCrCrGrUrUrArUrCrAmAmCmUmUmGmAmAmAmAmAmGmUmGmGmCmAmCmCmGmAmGmUmCmGmGmUmGmCmU*mU*mU*mU
B7: G000484: TTR sgRNA modified sequence, Human, SEQ ID NO: 91; guide sequence of CR003367 (nucleic acid)
guide: mA*mG*mA*rCrArCrCrArArArUrCrUrUrArCrUrGrGrArGrUrUrUrUrArGrAmGmCmUmAmGmAmAmAmUmAmGmCrArArGrUrUrArArArArUrArArGrGrCrUrArGrUrCrCrGrUrUrArUrCrAmAmCmUmUmGmAmAmAmAmAmGmUmGmGmCmAmCmCmGmAmGmUmCmGmGmUmGmCmU*mU*mU*mU
B8: G000567: TTR sgRNA modified sequence, Human, SEQ ID NO: 109; guide sequence of CR003352 (nucleic acid)
guide: mG*mA*mA*rArGrGrCrUrGrCrUrGrArUrGrArCrArCrCrGrUrUrUrUrArGrAmGmCmUmAmGmAmAmAmUmAmGmCrArArGrUrUrArArArArUrArArGrGrCrUrArGrUrCrCrGrUrUrArUrCrAmAmCmUmUmGmAmAmAmAmAmGmUmGmGmCmAmCmCmGmAmGmUmCmGmGmUmGmCmU*mU*mU*mU
B9: G000483: TTR sgRNA modified sequence, Human, SEQ ID NO: 90; guide sequence of CR005298 (nucleic acid)
guide: mU*mC*mC*rArCrUrCrArUrUrCrUrUrGrGrCrArGrGrArGrUrUrUrUrArGrAmGmCmUmAmGmAmAmAmUmAmGmCrArArGrUrUrArArArArUrArArGrGrCrUrArGrUrCrCrGrUrUrArUrCrAmAmCmUmUmGmAmAmAmAmAmGmUmGmGmCmAmCmCmGmAmGmUmCmGmGmUmGmCmU*mU*mU*mU
B10: G000502: TTR Cyno specific sgRNA modified sequence, SEQ ID NO: 114; guide sequence of CR000689; cross homologous between mouse and cyno (nucleic acid)
guide: mA*mC*mA*rCrArArArUrArCrCrArGrUrCrCrArGrCrGrGrUrUrUrUrArGrAmGmCmUmAmGmAmAmAmUmAmGmCrArArGrUrUrArArArArUrArArGrGrCrUrArGrUrCrCrGrUrUrArUrCrAmAmCmUmUmGmAmAmAmAmAmGmUmGmGmCmAmCmCmGmAmGmUmCmGmGmUmGmCmU*mU*mU*mU

What follows are molecules tested on TTR (assay: TTR editing in primary human hepatocytes treated with LNP formulated Spy Cas9 mRNA (SEQ ID NO: 2) and sgRNAs, 12.5 ng mRNA). Details: LNP formulated Spy Cas9 mRNA (SEQ ID NO: 2) and sgRNA, 12.5 ng mRNA, 3.9 nM sgRNA, 72 hours.
Type: cell-based
Method: (§1) Primary liver hepatocytes. Primary human liver hepatocytes (PHH) and primary cynomolgus liver hepatocytes (PCH) (Gibco) were cultured per the manufacturer's protocol (Invitrogen, protocol 11.28.2012). In brief, the cells were thawed and resuspended in hepatocyte thawing medium with supplements (Gibco, Cat. CM7000) followed by centrifugation at 100 g for 10 minutes for human and 80 g for 4 minutes for cyno. The supernatant was discarded and the pelleted cells resuspended in hepatocyte plating medium plus supplement pack (Invitrogen, Cat. A1217601 and CM3000). Cells were counted and plated on Bio-coat collagen I coated 96-well plates (ThermoFisher, Cat. 877272) at a density of 33,000 cells/well for human or 60,000 cells/well for cyno (or 65,000 cells/well when assaying effects on TTR protein, described further below). Plated cells were allowed to settle and adhere for 6 or 24 hours in a tissue culture incubator at 37° C. and 5% CO2 atmosphere. After incubation cells were checked for monolayer formation and media was replaced with hepatocyte culture medium with serum-free supplement pack (Invitrogen, Cat. A1217601 and CM4000).
In general, the lipid nanoparticle components were dissolved in 100% ethanol with the lipid component of various molar ratios. The RNA cargos were dissolved in 25 mM citrate, 100 mM NaCl, pH 5.0, resulting in a concentration of RNA cargo of approximately 0.45 mg/mL. The LNPs were formulated with a lipid amine to RNA phosphate (N:P) molar ratio of about 4.5 or about 6, with the ratio of mRNA to gRNA at 1:1 by weight.
The LNPs were formed by microfluidic mixing of the lipid and RNA solutions using a Precision Nanosystems NanoAssemblr™ Benchtop Instrument, according to the manufacturer's protocol. A 2:1 ratio of aqueous to organic solvent was maintained during mixing using differential flow rates. After mixing, the LNPs were collected, diluted in water (approximately 1:1 v/v), held for 1 hour at room temperature, and further diluted with water (approximately 1:1 v/v) before final buffer exchange. The final buffer exchange into 50 mM Tris, 45 mM NaCl, 5% (w/v) sucrose, pH 7.5 (TSS) was completed with PD-10 desalting columns (GE). If required, formulations were concentrated by centrifugation with Amicon 100 kDa centrifugal filters (Millipore). The resulting mixture was then filtered using a 0.2 μm sterile filter. The final LNP was stored at −80° C. until further use.
(§2) Additional PCR was performed per the manufacturer's protocols (Illumina) to add chemistry for sequencing. The amplicons were sequenced on an Illumina MiSeq instrument. The reads were aligned to a reference genome (e.g., the human reference genome (hg38), the cynomologus reference genome (mf5), the rat reference genome (rn6), or the mouse reference genome (mm10)) after eliminating those having low quality scores. The resulting files containing the reads were mapped to the reference genome (BAM files), where reads that overlapped the target region of interest were selected and the number of wild type reads versus the number of reads which contain an insertion, substitution, or deletion was calculated.
(§3) The editing percentage (e.g., the “editing efficiency” or “percent editing” or “indel frequency”) is defined as the total number of sequence reads with insertions/deletions (“indels”) or substitutions over the total number of sequence reads, including wild type.
Lipid nanoparticle formulations of modified sgRNAs targeting human TTR and the cyno matched sgRNA sequences were tested on primary human hepatocytes and primary cyno hepatocytes in a dose response curve. Primary human and cyno hepatocytes were plated as described in Example 1. Both cell lines were incubated at 37° C., 5% CO2 for 24 hours prior to treatment with LNPs. The LNPs used in the experiments detailed in Tables 18-21 were prepared using the Nanoassemblr™ procedure, each containing the specified sgRNA and Cas9 mRNA (SEQ ID NO:2), each having Lipid. […]

Molecule | 12.5 ng mRNA, 3.9 nM sgRNA, Avg % Edit
B1 | 61.33%
B2 | 88.30%
B3 | 59.33%
B4 | 6.37%
B5 | 19.10%
B6 | 16.07%
B7 | 16.67%
B8 | 48.95%
B9 | 7.37%

Same assay, conditions: LNP formulated Spy Cas9 mRNA and sgRNA, 8 point 2-fold dose response starting at 100 ng mRNA

Molecule | dose response curve of % editing (shape)
B2 | uncharacteristic dose response curve

The molecules below were run on TTR (assay: TTR editing dose response (EC50, maximum editing) in primary human hepatocytes treated with LNP formulated U-depleted Spy Cas9 mRNA and sgRNAs). Details: LNP formulated U-depleted Spy Cas9 mRNA and human specific sgRNAs, dose response.
Type: cell-based
Method: as §1
For LNPs prepared using the cross-flow technique, the LNPs were formed by impinging jet mixing of the lipid in ethanol with two volumes of RNA solutions and one volume of water. The lipid in ethanol is mixed through a mixing cross with the two volumes of RNA solution. A fourth stream of water is mixed with the outlet stream of the cross through an inline tee. (See WO2016010840 FIG. 2.) The LNPs were held for 1 hour at room temperature, and further diluted with water (approximately 1:1 v/v). Diluted LNPs were concentrated using tangential flow filtration on a flat sheet cartridge (Sartorius, 100 kD MWCO) and then buffer exchanged by diafiltration into 50 mM Tris, 45 mM NaCl, 5% (w/v) sucrose, pH 7.5 (TSS). Alternatively, the final buffer exchange into TSS was completed with PD-10 desalting columns (GE). If required, formulations were concentrated by centrifugation with Amicon 100 kDa centrifugal filters (Millipore). The resulting mixture was then filtered using a 0.2 μm sterile filter. The final LNP was stored at 4° C. or −80° C. until further use.
as §2, §3
Lipid nanoparticle formulations of modified sgRNAs targeting human TTR and the cyno matched sgRNA sequences were tested on primary human hepatocytes and primary cyno hepatocytes in a dose response curve. Primary human and cyno hepatocytes were plated as described in Example 1. Both cell lines were incubated at 37° C., 5% CO2 for 24 hours prior to treatment with LNPs. The LNPs used in the experiments detailed in Tables 20-22 were prepared using the cross-flow procedure described above but purified using PD-10 columns (GE Healthcare Life Sciences) and concentrated using Amicon centrifugal filter units (Millipore Sigma), each containing the specified sgRNA and Cas9 mRNA (SEQ ID NO:1). […] LNPs were incubated in hepatocyte maintenance media containing 6% cyno serum at 37° C., 5% CO2 for 5 minutes. […]

Molecule | Max Editing
B2 | 98.22%
B3 | 98.69%
B4 | 75.70%
B5 | 97.02%
B6 | 96.31%
B7 | 94.14%
B9 | 77.39%

Same assay, conditions: LNP with U-depleted Spy Cas9 mRNA and cyno specific sgRNA, 8 point 3-fold dose response starting at 300 ng mRNA, 72 hours

Molecule | Max Editing
B10 | 91.5%

What follows are molecules tested on TTR (assay: TTR editing dose response (EC50, maximum editing) in primary cyno hepatocytes treated with LNP formulated U-depleted Spy Cas9 mRNA and sgRNAs). Details: LNP formulated U-depleted Spy Cas9 mRNA and cyno specific sgRNAs.
Type: cell-based, cynomolgus monkey
How it was run: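 Primary cyno hepatocytes, 24 h after plating, treated with LNPs (Cas9 mRNA plus sgRNA) preincubated 5 min in medium with 6% cyno serum; 8-point 3-fold doses from 300 ng mRNA. Lysed at 72 h; indel/substitution percentage by amplicon NGS, giving EC50 and maximum editing.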

Molecule | Max Editing
B10 | 100.05%

Same assay, conditions: LNP formulated U-depleted Spy Cas9 mRNA and human specific sgRNAs

Molecule | Max Editing
B2 | 96.73%
B3 | 20.32%
B4 | 60.84%
B5 | 97.47%
B6 | 74.94%
B7 | 0.22%
B8 | 97.06%
B9 | 56.52%
